Results: patent publication US20250382344A1, “Soluble GLP1/GIP/NPY2 Receptor Triple Agonists” (Boehringer Ingelheim International GmH, priority 2024, published 2025)
*1 amine or outer side, *2 acyl side, *3 side chain or, on linkers, in order; H or OH if unused. Where no end group is shown, it is not given here. Side-chain parts run from the residue outwards. [ ]: non-standard residue; d: D form. The star is where a group is joined. C20 diacid = O=C(O)CCCCCCCCCCCCCCCCCCC(=O)*; C18 diacid = O=C(O)CCCCCCCCCCCCCCCCC(=O)*; γGlu = O=C(O)[C@H](CCC(=O)[*:2])N[*:1]; εLys = N[C@@H](CCCCN[*:1])C(=O)[*:2]; NMeQ = CN[C@@H](CCC(N)=O)C(=O)O; dtOrn = not defined here; AEEA = NCCOCCOCC(=O)O; Aib = CC(C)(N)C(=O)O

T1: human GIP receptor (human, UniProt P48546 22-466)
T1 sequence (looked up): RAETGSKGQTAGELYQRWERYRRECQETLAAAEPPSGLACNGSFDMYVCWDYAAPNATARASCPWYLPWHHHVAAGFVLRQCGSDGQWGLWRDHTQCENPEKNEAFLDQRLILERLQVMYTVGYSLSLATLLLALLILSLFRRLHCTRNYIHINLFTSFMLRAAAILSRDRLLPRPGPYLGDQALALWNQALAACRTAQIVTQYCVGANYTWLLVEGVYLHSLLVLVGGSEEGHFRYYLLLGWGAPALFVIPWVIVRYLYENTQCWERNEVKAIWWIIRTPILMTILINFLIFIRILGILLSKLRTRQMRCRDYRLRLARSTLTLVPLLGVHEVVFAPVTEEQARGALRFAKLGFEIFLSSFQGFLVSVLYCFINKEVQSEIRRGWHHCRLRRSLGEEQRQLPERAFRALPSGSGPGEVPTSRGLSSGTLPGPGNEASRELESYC

T2: human neuropeptide Y2 receptor (human, UniProt P49146 1-381)
T2 sequence (looked up): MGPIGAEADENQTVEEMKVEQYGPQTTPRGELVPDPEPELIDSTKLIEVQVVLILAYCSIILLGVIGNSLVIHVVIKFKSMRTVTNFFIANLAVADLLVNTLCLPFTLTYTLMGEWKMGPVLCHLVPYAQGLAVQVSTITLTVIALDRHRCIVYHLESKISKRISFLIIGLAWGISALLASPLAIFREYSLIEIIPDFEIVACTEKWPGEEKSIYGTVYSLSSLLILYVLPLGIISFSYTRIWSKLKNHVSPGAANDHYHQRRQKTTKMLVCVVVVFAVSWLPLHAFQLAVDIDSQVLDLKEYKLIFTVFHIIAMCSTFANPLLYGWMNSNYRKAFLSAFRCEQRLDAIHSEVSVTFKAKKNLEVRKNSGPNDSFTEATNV


Assays:
Test in all cases: cell-based or functional assay
[1] = biological target: T1, human GIP receptor
[2] = biological target: human GLP-1 receptor (human, UniProt P43220 24-463)
[3] = biological target: T2, human neuropeptide Y2 receptor

Binder	EC50, CreLuc reporter, 0.5% hP [1]	EC50, CreLuc reporter, 100% hP [1]	EC50, CreLuc reporter, 0.5% hP [2]	EC50, CreLuc reporter, 100% hP [2]	EC50, CreLuc reporter, 100% hP [3]	EC50, CreLuc reporter, 0.5% hP [3]
YXEGTFTSDYSIXLEKQAQXAFIRHLINKXTRQRY (Aib at 2, 13, 20, 30; Lys29 epsilon-amino: C18DA-gGlu-gGlu-gGlu-gGlu-gGlu-gGlu-eLys; C-terminal amide) [Compound 88]	0.1 nM	1.7 nM	0.2 nM	1.8 nM	30.9 nM	
YXEGTFTSDYSIXLEKQAQXAFVRHLINKXTRQRY (Aib at 2, 13, 20, 30; Lys29 epsilon-amino: C20DA-gGlu-gGlu-gGlu-gGlu-gGlu-gGlu-gGlu; C-terminal amide) [Compound 101]	1 nM			20 nM		
YXEGTFTSDYSIXLEKQAQXAFVRHLINKXTRQXY (Aib at 2, 13, 20, 30; dOR at 34; Lys29 epsilon-amino: C18DA-gGlu-gGlu-gGlu-gGlu-gGlu-gGlu-eLys; C-terminal amide) [Compound 90]		0.6 nM	2 nM			
YXEGTFTSDYSIXLEKQRQXAFVRHLINKXTRQRY (Aib at 2, 13, 20, 30; Lys29 epsilon-amino: C18DA-gGlu-gGlu-gGlu-gGlu-gGlu-gGlu-eLys; C-terminal amide) [Compound 91]	0.8 nM	14.4 nM		13.7 nM	45.2 nM	9.7 nM
YXEGTFTSDYSIXLEKQAQXAFVRHLINKXTRQXY (Aib at 2, 13, 20, 30; dOR at 34; Lys29 epsilon-amino: C18DA-gGlu-gGlu-gGlu-gGlu-gGlu; C-terminal amide) [Compound 96]	0.3 nM	1.7 nM	0.9 nM	1.7 nM	125 nM	23 nM
Y[Aib]EGTFTSDYSI[Aib]LEKQAQ[Aib]AFVRHLINK([dtOrn-γGlu-γGlu-γGlu-γGlu-γGlu-γGlu-C20 diacid])[Aib]TRQRY-NH2 (reading uncertain) [Compound 97]		12.7 nM	3.8 nM	16.8 nM	135 nM	11.7 nM
Y[Aib]EGTFTSDYSI[Aib]LEKEAQ[Aib]EFVRHLINK([γGlu-γGlu-γGlu-γGlu-C18 diacid])[Aib]TRQRY-NH2 (N-terminus assumed; SMILES CC[C@H](C)[C@H](NC(=O)[C@H](CC(C)C)NC(=O)[C@H](Cc1c[nH]cn1)NC(=O)[C@H](CCCNC(=N)N)NC(=O)[C@@H](NC(=O)[C@H](Cc1ccccc1)NC(=O)[C@H](CCC(=O)O)NC(=O)C(C)(C)NC(=O)[C@H](CCC(N)=O)NC(=O)[C@H](C)NC(=O)[C@H](CCC(=O)O)NC(=O)[C@H](CCCCN)NC(=O)[C@H](CCC(=O)O)NC(=O)[C@H](CC(C)C)NC(=O)C(C)(C)NC(=O)[C@@H](NC(=O)[C@H](CO)NC(=O)[C@H](Cc1ccc(O)cc1)NC(=O)[C@H](CC(=O)O)NC(=O)[C@H](CO)NC(=O)[C@@H](NC(=O)[C@H](Cc1ccccc1)NC(=O)[C@@H](NC(=O)CNC(=O)[C@H](CCC(=O)O)NC(=O)C(C)(C)NC(=O)[C@@H](N)Cc1ccc(O)cc1)[C@@H](C)O)[C@@H](C)O)[C@@H](C)CC)C(C)C)C(=O)N[C@@H](CC(N)=O)C(=O)N[C@@H](CCCCNC(=O)CC[C@H](NC(=O)CC[C@H](NC(=O)CC[C@H](NC(=O)CC[C@H](NC(=O)CCCCCCCCCCCCCCCCC(=O)O)C(=O)O)C(=O)O)C(=O)O)C(=O)O)C(=O)NC(C)(C)C(=O)N[C@H](C(=O)N[C@@H](CCCNC(=N)N)C(=O)N[C@@H](CCC(N)=O)C(=O)N[C@@H](CCCNC(=N)N)C(=O)N[C@@H](Cc1ccc(O)cc1)C(N)=O)[C@@H](C)O) [Compound 100]	0.5 nM		0.2 nM			

The remaining lines, values ahead:

EC50, CreLuc reporter, 0.5% hP [1]	EC50, CreLuc reporter, 100% hP [1]	EC50, CreLuc reporter, 0.5% hP [2]	EC50, CreLuc reporter, 100% hP [2]	EC50, CreLuc reporter, 100% hP [3]	EC50, CreLuc reporter, 0.5% hP [3]	Binder
0.4 nM		0.6 nM				YXEGTFTSDYSIXLEKEAQXAFVRHLINKXTRQRY (Aib at 2, 13, 20, 30; Lys29 epsilon-amino: C18DA-gGlu-gGlu-gGlu-gGlu-gGlu-gGlu-eLys; C-terminal amide) [Compound 164]
0.3 nM		0.8 nM				YXEGTFTSDYSIXLEKQAQXAFIRHLINKXTRQRY (Aib at 2, 13, 20, 30; Lys29 epsilon-amino: C20DA-gGlu-gGlu-gGlu-gGlu-gGlu-gGlu-eLys; C-terminal amide) [Compound 109]
0.5 nM	10.3 nM		31.6 nM	27.9 nM		YXEGTFTSDYSEXLEKQAQXAFVRHLINKXTRQRY (Aib at 2, 13, 20, 30; Lys29 epsilon-amino: C18DA-gGlu-gGlu-gGlu-gGlu-gGlu-gGlu-eLys; C-terminal amide) [Compound 112]
0.2 nM	5.7 nM	0.7 nM	4 nM			YXEGTFTSDYSIXLEKQAQXAFVRALINKXTRQRY (Aib at 2, 13, 20, 30; Lys29 epsilon-amino: C18DA-gGlu-gGlu-gGlu-gGlu-gGlu-gGlu-eLys; C-terminal amide) [Compound 128]
0.1 nM	4 nM	0.5 nM				YXEGTFTSDYSIXLERQAQXAFVRHLINKXTRQRY (Aib at 2, 13, 20, 30; Lys29 epsilon-amino: C18DA-gGlu-gGlu-gGlu-gGlu-gGlu-gGlu-eLys; C-terminal amide) [Compound 124]
	0.8 nM	0.1 nM		43.7 nM		YXEGTFTSDYSIXLEKQAQXAFVRHLINKXTRQRY (Aib at 2, 20, 30; aMeL at 13; Lys29 epsilon-amino: C18DA-gGlu-gGlu-gGlu-gGlu-gGlu-gGlu-eLys; C-terminal amide) [Compound 119]
	3.4 nM	2 nM				YXEGTFTSDYSIXLEKQAQXAFVRHLINKXTRQRY (Aib at 2, 13, 20, 30; NMeY at 35; Lys29 epsilon-amino: C18DA-gGlu-gGlu-gGlu-gGlu-gGlu-gGlu-eLys; C-terminal amide) [Compound 116]
	3.8 nM	0.7 nM	2.3 nM	51.4 nM	14.2 nM	Y[Aib]EGTFTSDYSI[Aib]LEKQAQ[Aib]AFVRHLINK([AEEA-γGlu-γGlu-γGlu-γGlu-C18 diacid])[Aib]TRQRY-NH2 (N-terminus assumed; SMILES CC[C@H](C)[C@H](NC(=O)[C@H](CC(C)C)NC(=O)[C@H](Cc1c[nH]cn1)NC(=O)[C@H](CCCNC(=N)N)NC(=O)[C@@H](NC(=O)[C@H](Cc1ccccc1)NC(=O)[C@H](C)NC(=O)C(C)(C)NC(=O)[C@H](CCC(N)=O)NC(=O)[C@H](C)NC(=O)[C@H](CCC(N)=O)NC(=O)[C@H](CCCCN)NC(=O)[C@H](CCC(=O)O)NC(=O)[C@H](CC(C)C)NC(=O)C(C)(C)NC(=O)[C@@H](NC(=O)[C@H](CO)NC(=O)[C@H](Cc1ccc(O)cc1)NC(=O)[C@H](CC(=O)O)NC(=O)[C@H](CO)NC(=O)[C@@H](NC(=O)[C@H](Cc1ccccc1)NC(=O)[C@@H](NC(=O)CNC(=O)[C@H](CCC(=O)O)NC(=O)C(C)(C)NC(=O)[C@@H](N)Cc1ccc(O)cc1)[C@@H](C)O)[C@@H](C)O)[C@@H](C)CC)C(C)C)C(=O)N[C@@H](CC(N)=O)C(=O)N[C@@H](CCCCNC(=O)COCCOCCNC(=O)CC[C@H](NC(=O)CC[C@H](NC(=O)CC[C@H](NC(=O)CC[C@H](NC(=O)CCCCCCCCCCCCCCCCC(=O)O)C(=O)O)C(=O)O)C(=O)O)C(=O)O)C(=O)NC(C)(C)C(=O)N[C@H](C(=O)N[C@@H](CCCNC(=N)N)C(=O)N[C@@H](CCC(N)=O)C(=O)N[C@@H](CCCNC(=N)N)C(=O)N[C@@H](Cc1ccc(O)cc1)C(N)=O)[C@@H](C)O) [Compound 110]
0.6 nM		8 nM				Y[Aib]EGTFTSDLSI[Aib]LEKQAQ[Aib]AFVRHLINK([γGlu-γGlu-εLys-γGlu-γGlu-γGlu-γGlu-C20 diacid])[Aib]TRQRY-NH2 [Compound 166]
0.5 nM		1.8 nM	10 nM	657 nM	82.1 nM	Y[Aib]EGTFTSDYSI[Aib]LEKQAQ[Aib]AFVRHLINK([γGlu-γGlu-γGlu-γGlu-γGlu-γGlu-C20 diacid])[Aib]TR[NMeQ]RY-NH2 (N-terminus assumed; SMILES CC[C@H](C)[C@H](NC(=O)[C@H](CC(C)C)NC(=O)[C@H](Cc1c[nH]cn1)NC(=O)[C@H](CCCNC(=N)N)NC(=O)[C@@H](NC(=O)[C@H](Cc1ccccc1)NC(=O)[C@H](C)NC(=O)C(C)(C)NC(=O)[C@H](CCC(N)=O)NC(=O)[C@H](C)NC(=O)[C@H](CCC(N)=O)NC(=O)[C@H](CCCCN)NC(=O)[C@H](CCC(=O)O)NC(=O)[C@H](CC(C)C)NC(=O)C(C)(C)NC(=O)[C@@H](NC(=O)[C@H](CO)NC(=O)[C@H](Cc1ccc(O)cc1)NC(=O)[C@H](CC(=O)O)NC(=O)[C@H](CO)NC(=O)[C@@H](NC(=O)[C@H](Cc1ccccc1)NC(=O)[C@@H](NC(=O)CNC(=O)[C@H](CCC(=O)O)NC(=O)C(C)(C)NC(=O)[C@@H](N)Cc1ccc(O)cc1)[C@@H](C)O)[C@@H](C)O)[C@@H](C)CC)C(C)C)C(=O)N[C@@H](CC(N)=O)C(=O)N[C@@H](CCCCNC(=O)CC[C@H](NC(=O)CC[C@H](NC(=O)CC[C@H](NC(=O)CC[C@H](NC(=O)CC[C@H](NC(=O)CC[C@H](NC(=O)CCCCCCCCCCCCCCCCCCC(=O)O)C(=O)O)C(=O)O)C(=O)O)C(=O)O)C(=O)O)C(=O)O)C(=O)NC(C)(C)C(=O)N[C@H](C(=O)N[C@@H](CCCNC(=N)N)C(=O)N(C)[C@@H](CCC(N)=O)C(=O)N[C@@H](CCCNC(=N)N)C(=O)N[C@@H](Cc1ccc(O)cc1)C(N)=O)[C@@H](C)O) [Compound 114]
